The values below come from the supplement of paper PMC7877785.

The data set in a line: self-splicing fitness, log relative to wild type (ln ratio); higher = more splicing; Tetrahymena group I intron in knt gene, E. coli kanamycin selection, DiMSum; sequences stand for … in CUCUCU…GGAGGGAAAAGUUAUCAGGCAUGCACCUGGUAGCUAGUCUUUAAACCAAUAGAUUGCAUCGGUUUAAAAGGCAAGACCGUCAAAUUGCGGGAAAGGGGUCAACAGCCGUUCAGUACCAAGUCUCAGGGGAAACUUUGAGAUGGCCUUGCAAAGGGUAUGGUAAUAAGCUGACGGACAUGGUCCUAACCACGCAGCCAAGUCCUAAGUCAACAGAUCUUCUGUUGAUAUGGAUGCAGUUCACAGACUAAAUGUCGGUCGGGGAAGAUGUAUUCUUCUCAUAAGAUAUAGUCGGACCUCUCCUUAAUGGGAGCUAGCGGAUGAAGUGAUGCAACACUGGAGCCGCUGGGAACUAAUUUGUAUGCGAAAGUAUAUUGAUUAGUUUUGGAGUACUCGUGGUCG
The method in brief: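 Library with all eight P1ex-region intron nucleotides randomised, intron inside the knt kanamycin-resistance gene on pET-22b(+), in E. coli BL21(DE3). Cells grew overnight at 37°C or 30°C on LB agar with or without 25 μg/mL kanamycin (plus 100 μg/mL carbenicillin, 50 μM IPTG, 0.2% rhamnose), in six replicate transformations. Pooled colonies were amplicon-sequenced on Illumina HiSeq 2500. DiMSum fitness is the error-weighted combination of wild-type-normalised replicate fold changes, kanamycin versus none.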

± gives the uncertainty stated by the source.

With AUACAGCAAUAUUACGUCGA, the “self-splicing fitness (ln)” value runs as follows: (30 °C) -1.77 ± 0.13; (37 °C) -1.23 ± 0.12.

For CGGCAGCAAUAUUACGGGAG, the “self-splicing fitness (ln)” value is, setting by setting: (30 °C) -2.36 ± 0.15; (37 °C) -1.77 ± 0.18.

For GCGAAGCAAUAUUACGAGAG, the “self-splicing fitness (ln)” value runs as follows: (30 °C) -3.95 ± 0.34; (37 °C) -1.91 ± 0.2.

For the sequence GCAAAGCAAUAUUACGCGAU, the “self-splicing fitness (ln)” value is -2.8 ± 0.23 (30 °C) and -2.73 ± 0.3 (37 °C).

For ACGAAGCAAUAUUACGCCAA, the “self-splicing fitness (ln)” value is -2.55 ± 0.31 (30 °C) and -1.98 ± 0.23 (37 °C).

Consider AUCAAGCAAUAUUACGAUUU, for which the “self-splicing fitness (ln)” value reads like this: (30 °C) -0.487 ± 0.056; (37 °C) -0.186 ± 0.072.

As to AAUUAGCAAUAUUACGCGUU, the “self-splicing fitness (ln)” value is -3.13 ± 0.32 (30 °C) and -2.61 ± 0.28 (37 °C).

Turning to UCCGAGCAAUAUUACGCUAG, the “self-splicing fitness (ln)” value was -3.12 ± 0.31 (30 °C) and -2.75 ± 0.34 (37 °C).

As to UCAGAGCAAUAUUACGAUCU, the “self-splicing fitness (ln)” value is, setting by setting: (30 °C) -3.62 ± 0.21; (37 °C) -2.88 ± 0.28.

For the sequence UAUCAGCAAUAUUACGCUGU, the “self-splicing fitness (ln)” value is -3.25 ± 0.2 (30 °C) and -2.16 ± 0.15 (37 °C).

Consider AUGCAGCAAUAUUACGAUUG, for which the “self-splicing fitness (ln)” value runs as follows: (30 °C) -2.67 ± 0.2; (37 °C) -2.83 ± 0.32.

For the sequence CCCUAGCAAUAUUACGAGAA, the “self-splicing fitness (ln)” value (30 °C) is -2.85 ± 0.45 and the “self-splicing fitness (ln)” value (37 °C) is -2.67 ± 0.44.

As for AAUAAGCAAUAUUACGAAAG, the “self-splicing fitness (ln)” value (30 °C) was -3.68 ± 0.27 and the “self-splicing fitness (ln)” value (37 °C) is -1.37 ± 0.22.

Consider GUCGAGCAAUAUUACGAGCC, for which the “self-splicing fitness (ln)” value (30 °C) is -3.81 ± 0.47.

As for ACCUAGCAAUAUUACGGAUG, the “self-splicing fitness (ln)” value runs as follows: (30 °C) -2.77 ± 0.11; (37 °C) -1.24 ± 0.09.

With ACGUAGCAAUAUUACGGGCA, the “self-splicing fitness (ln)” value (30 °C) is -0.955 ± 0.099 and the “self-splicing fitness (ln)” value (37 °C) was -0.418 ± 0.12.

As to AGAUAGCAAUAUUACGGUCU, the “self-splicing fitness (ln)” value (30 °C) is -2 ± 0.17 and the “self-splicing fitness (ln)” value (37 °C) was -2.8 ± 0.22.

For CCCAAGCAAUAUUACGGAUU, the “self-splicing fitness (ln)” value was -2.56 ± 0.12 (30 °C) and -2.71 ± 0.16 (37 °C).

For the sequence ACAUAGCAAUAUUACGUGAC, the “self-splicing fitness (ln)” value runs as follows: (30 °C) -3.15 ± 0.15; (37 °C) -2.16 ± 0.15.

For ACCUAGCAAUAUUACGACUU, the “self-splicing fitness (ln)” value is -0.837 ± 0.094 (30 °C) and 0.22 ± 0.1 (37 °C).

Take GUUGAGCAAUAUUACGACUG: the “self-splicing fitness (ln)” value runs as follows: (30 °C) -2.97 ± 0.32; (37 °C) 0.138 ± 0.22.

Consider AUGGAGCAAUAUUACGGGAA, for which the “self-splicing fitness (ln)” value is -2.71 ± 0.2 (30 °C) and -2.33 ± 0.17 (37 °C).

Turning to GGUUAGCAAUAUUACGACCG, the “self-splicing fitness (ln)” value is, setting by setting: (30 °C) -0.946 ± 0.25; (37 °C) 1.43 ± 0.36.

As for AGUCAGCAAUAUUACGCAUU, the “self-splicing fitness (ln)” value is, setting by setting: (30 °C) -0.401 ± 0.069; (37 °C) -0.421 ± 0.085.

On to UGUAAGCAAUAUUACGUUCU, for which the “self-splicing fitness (ln)” value runs as follows: (30 °C) -0.123 ± 0.085; (37 °C) -0.0225 ± 0.1.

Take CGUUAGCAAUAUUACGCUUU: the “self-splicing fitness (ln)” value (37 °C) was -2.41 ± 0.3.

UGUGAGCAAUAUUACGUCAA: the “self-splicing fitness (ln)” value reads like this: (30 °C) -3.68 ± 0.35; (37 °C) -2.65 ± 0.31.

As to AACAAGCAAUAUUACGGCGC, the “self-splicing fitness (ln)” value runs as follows: (30 °C) -0.737 ± 0.1; (37 °C) 0.0559 ± 0.12.

With CAAAAGCAAUAUUACGUAUG, the “self-splicing fitness (ln)” value is, setting by setting: (30 °C) -2.89 ± 0.098; (37 °C) -2.22 ± 0.13.

With GAUGAGCAAUAUUACGGUGG, the “self-splicing fitness (ln)” value is -4.41 ± 0.23 (30 °C) and -1.73 ± 0.14 (37 °C).

For the sequence UAACAGCAAUAUUACGGAAA, the “self-splicing fitness (ln)” value runs as follows: (30 °C) -2.91 ± 0.23; (37 °C) -1.11 ± 0.14.

As to GAAAAGCAAUAUUACGUUCA, the “self-splicing fitness (ln)” value reads like this: (30 °C) -0.878 ± 0.086; (37 °C) -0.773 ± 0.082.

CACGAGCAAUAUUACGAAGG: the “self-splicing fitness (ln)” value (30 °C) was -3.2 ± 0.19 and the “self-splicing fitness (ln)” value (37 °C) is -2.01 ± 0.26.

Consider CGUCAGCAAUAUUACGACUA, for which the “self-splicing fitness (ln)” value by setting is: (30 °C) -0.58 ± 0.13; (37 °C) 0.632 ± 0.18.

For the sequence AUGAAGCAAUAUUACGUUGC, the “self-splicing fitness (ln)” value by setting is: (30 °C) -3.64 ± 0.2; (37 °C) -3.01 ± 0.26.

Consider UGAAAGCAAUAUUACGCUCA, for which the “self-splicing fitness (ln)” value reads like this: (30 °C) -1 ± 0.19; (37 °C) -0.0203 ± 0.25.

CGACAGCAAUAUUACGGGUC: the “self-splicing fitness (ln)” value (30 °C) was -4.52 ± 0.32 and the “self-splicing fitness (ln)” value (37 °C) was -3.14 ± 0.29.

As to AUUGAGCAAUAUUACGGGGU, the “self-splicing fitness (ln)” value (30 °C) is -3.33 ± 0.25 and the “self-splicing fitness (ln)” value (37 °C) is -3.44 ± 0.27.

As for UCAUAGCAAUAUUACGUGUU, the “self-splicing fitness (ln)” value by setting is: (30 °C) -3.81 ± 0.14; (37 °C) -1.57 ± 0.1.

Turning to UGACAGCAAUAUUACGUUCA, the “self-splicing fitness (ln)” value was -0.939 ± 0.076 (30 °C) and 0.0202 ± 0.08 (37 °C).

Take CGCCAGCAAUAUUACGGUGG: the “self-splicing fitness (ln)” value is, setting by setting: (30 °C) -2.06 ± 0.09; (37 °C) -2.56 ± 0.18.

Turning to GCUAAGCAAUAUUACGGUGG, the “self-splicing fitness (ln)” value is, setting by setting: (30 °C) -3.83 ± 0.23; (37 °C) -1.82 ± 0.21.

Consider UCUCAGCAAUAUUACGGCAC, for which the “self-splicing fitness (ln)” value by setting is: (30 °C) -2.33 ± 0.24; (37 °C) -1.79 ± 0.38.

As to GGGAAGCAAUAUUACGGUGA, the “self-splicing fitness (ln)” value by setting is: (30 °C) -1.76 ± 0.3; (37 °C) -0.447 ± 0.18.

UUUCAGCAAUAUUACGUAUC: the “self-splicing fitness (ln)” value runs as follows: (30 °C) -1.71 ± 0.14; (37 °C) -1.5 ± 0.14.

Consider CCAAAGCAAUAUUACGCGCC, for which the “self-splicing fitness (ln)” value (30 °C) is -3.43 ± 0.21 and the “self-splicing fitness (ln)” value (37 °C) was -2.71 ± 0.27.

In the case of UACAAGCAAUAUUACGUUUU, the “self-splicing fitness (ln)” value (30 °C) was -3.05 ± 0.11 and the “self-splicing fitness (ln)” value (37 °C) is -2.32 ± 0.12.

AAAUAGCAAUAUUACGGUGU: the “self-splicing fitness (ln)” value was -2.83 ± 0.13 (30 °C) and -2.05 ± 0.15 (37 °C).

With CUCGAGCAAUAUUACGUUUU, the “self-splicing fitness (ln)” value reads like this: (30 °C) -3.2 ± 0.13; (37 °C) -2.1 ± 0.17.

Turning to CAAAAGCAAUAUUACGAGAC, the “self-splicing fitness (ln)” value runs as follows: (30 °C) -3.62 ± 0.39; (37 °C) -2.36 ± 0.21.

For the sequence UCUAAGCAAUAUUACGUCCG, the “self-splicing fitness (ln)” value (30 °C) is -0.454 ± 0.15 and the “self-splicing fitness (ln)” value (37 °C) was -0.55 ± 0.14.

Consider UCUCAGCAAUAUUACGCGCA, for which the “self-splicing fitness (ln)” value (30 °C) is -0.638 ± 0.16 and the “self-splicing fitness (ln)” value (37 °C) is -0.617 ± 0.18.

Consider AGGGAGCAAUAUUACGUGGG, for which, where the note is “30 °C”, the “self-splicing fitness (ln)” value is -3.31 ± 0.2.

For the sequence CCCAAGCAAUAUUACGGGGG, the “self-splicing fitness (ln)” value is -3.6 ± 0.13 (30 °C) and -3 ± 0.19 (37 °C).

In the case of GGACAGCAAUAUUACGUCCA, the “self-splicing fitness (ln)” value by setting is: (30 °C) -1.24 ± 0.13; (37 °C) -0.889 ± 0.16.

For the sequence CGUGAGCAAUAUUACGAGUA, for the setting “37 °C”, the “self-splicing fitness (ln)” value was -0.918 ± 0.47.

On to CGGUAGCAAUAUUACGAGUU, for which the “self-splicing fitness (ln)” value was -3.87 ± 0.36 (30 °C) and -3.26 ± 0.27 (37 °C).

On to UACCAGCAAUAUUACGGGCG, for which the “self-splicing fitness (ln)” value was -0.359 ± 0.072 (30 °C) and -0.277 ± 0.079 (37 °C).

For GGCCAGCAAUAUUACGUAGC, the “self-splicing fitness (ln)” value is, setting by setting: (30 °C) -2.24 ± 0.16; (37 °C) 0.278 ± 0.16.

For the sequence UACUAGCAAUAUUACGAUUA, the “self-splicing fitness (ln)” value is -0.867 ± 0.13 (30 °C) and 0.62 ± 0.16 (37 °C).

As to UGGUAGCAAUAUUACGUCGG, the “self-splicing fitness (ln)” value by setting is: (30 °C) -1.21 ± 0.12; (37 °C) -0.18 ± 0.15.
